Data: patent US20220168396A1, “MULTI-RECEPTOR AGONIST AND MEDICAL USE THEREOF” (published 2022)
Numbered stars: 1 amine (or outer) side, 2 acyl side, 3 side chain; on linkers, the order of the positions; unused ones are H or OH. Square brackets hold non-standard residues; d marks the D form. Side chains are listed from the residue outwards. Ends that are not written are not given here. γGlu = O=C(O)[C@H](CCC(=O)[*:2])N[*:1]; AEEA = NCCOCCOCC(=O)O; Aib = CC(C)(N)C(=O)O

T1: human glucose-dependent insulinotropic peptide receptor (human, UniProt P48546)
T1 sequence: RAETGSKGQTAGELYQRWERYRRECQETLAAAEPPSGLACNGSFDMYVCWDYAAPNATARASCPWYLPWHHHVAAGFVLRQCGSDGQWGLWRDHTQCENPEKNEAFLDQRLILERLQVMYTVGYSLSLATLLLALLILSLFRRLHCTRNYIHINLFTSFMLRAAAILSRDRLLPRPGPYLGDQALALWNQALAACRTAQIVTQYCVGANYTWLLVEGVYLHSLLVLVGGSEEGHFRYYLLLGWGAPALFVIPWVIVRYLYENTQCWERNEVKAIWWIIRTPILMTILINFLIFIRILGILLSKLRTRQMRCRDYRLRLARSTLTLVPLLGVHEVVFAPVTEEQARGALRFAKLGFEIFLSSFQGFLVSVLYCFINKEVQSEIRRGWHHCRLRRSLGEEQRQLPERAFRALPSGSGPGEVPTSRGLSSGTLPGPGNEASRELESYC


How the values were obtained:
[1] = target: human glucagon-like peptide-1 receptor (human, UniProt P43220); assay: cell-based or functional assay
[2] = target: T1, human glucose-dependent insulinotropic …; assay: cell-based or functional assay

Binder	Activity for human GLP-1R (EC50 nM), cAMP HTRF [1] [nM]	Activity for human GIPR (EC50 nM), cAMP HTRF [2] [nM]
H-Y[Aib]EGTFTSDYSIYLEKIAAKEFVNWLLAGGPSSGAPPPS-NH2 (not fully specified (residue 20); printed as H-YAibEGTFTSDYSIYLEKIAAK(OEG-OEG-yGlu-C18-OH)EFVNWLLAG / GPSSGAPPPS-NH2) [Compound No. 30]	0.058	0.021
Y[Aib]EGTFTSDYSIYLEKIAAQEFVNWLLAGGPSSGAPPPSK([AEEA-AEEA-γGlu-C20‑OH])-NH2 [Compound No. 74]	0.068	0.046
H-Y[Aib]EGTFTSDYSIYLEKIAAQEFVNWLLAGKPSSGAPPPS-NH2 (not fully specified (residue 30); printed as H-YAibEGTFTSDYSIYLEKIAAQEFVNWLLAGK(OEG-OEG-yGlu-C18-OH) / PSSGAPPPS-NH2) [Compound No. 29]	0.24	0.015
Y[Aib]EGTFTSDYSIYLDKIAAK([AEEA-AEEA-γGlu-C18‑OH])EFVNWLLAGGPSSGAPPPS-NH2 [Compound No. 60]	0.2	0.02
H-Y[Aib]EGTFTSDYSIYLEKIAAQEFVNWLLAGGPSSGAPPPSK-NH2 (not fully specified (residue 40); printed as H-YAibEGTFTSDYSIYLEKIAAQEFVNWLLAGGPSSGAPPPSK / (OEG-OEG-yGlu-C18-OH)-NH2) [Compound No. 28]	0.074	0.02
Y[Aib]EGTFTSDYSIYLEKIAAK([AEEA-AEEA-γGlu-C20‑OH])EFVNWLLAGGPSSGAPPPS-NH2 [Compound No. 75]	0.2	0.16
Y[Aib]EGTFTSDYSIYLDKIAAQEFVNWLLAGGPSSGAPPPSK([AEEA-AEEA-γGlu-C18‑OH])-NH2 [Compound No. 62]	0.32	0.045
H-Y[Aib]EGTFTSDYSIYLEKEAAKEFVNWLLAGGPSSGAPPPS-NH2 (not fully specified (residue 20); printed as H-YAibEGTFTSDYSIYLEKEAAK(OEG-OEG-yGlu-C18-OH)EFVNWLLAG / GPSSGAPPPS-NH2) [Compound No. 27]	0.12	0.11
H-Y[Aib]EGTFTSDYSIYLEKEAAKEFVNWLLAGGPSSGAPPPSK-NH2 (not fully specified (residue 40); printed as H-YAibEGTFTSDYSIYLEKEAAKEFVNWLLAGGPSSGAPPPSK / (OEG-OEG-yGlu-C18-OH)-NH2) [Compound No. 25]	0.031	0.059
